Assays:
[1] = target: T1, human Bcl-2 a.a. 1-207 with C-terminal avi-6his tag (human, UniProt P10415 2-207); assay: BLI, biotinylated target on streptavidin sensor
[2] = target: T2, human Bcl-XL a.a. 1-205 with C-terminal avi-6his tag (human, UniProt Q07817 2-206); assay: BLI, biotinylated target on streptavidin sensor
T2 construct: also called BCL2L1

[3] = target: T3, human Bcl-B a.a. 11-175 with C-terminal avi-6his tag (human); assay: BLI, biotinylated target on streptavidin sensor
T3 construct: also called BCL2L10
T3 chain: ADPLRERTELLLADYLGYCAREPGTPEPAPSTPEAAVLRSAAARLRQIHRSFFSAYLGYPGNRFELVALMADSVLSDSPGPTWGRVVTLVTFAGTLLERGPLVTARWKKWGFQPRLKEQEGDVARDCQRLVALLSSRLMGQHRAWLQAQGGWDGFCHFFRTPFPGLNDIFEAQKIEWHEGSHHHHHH

[4] = target: T4, human Bcl-w a.a. 1-182 with C-terminal avi-6his tag (human, UniProt Q92843 1-182); assay: BLI, biotinylated target on streptavidin sensor
T4 construct: range 1-182; also called BCL2L2
T4 sequence: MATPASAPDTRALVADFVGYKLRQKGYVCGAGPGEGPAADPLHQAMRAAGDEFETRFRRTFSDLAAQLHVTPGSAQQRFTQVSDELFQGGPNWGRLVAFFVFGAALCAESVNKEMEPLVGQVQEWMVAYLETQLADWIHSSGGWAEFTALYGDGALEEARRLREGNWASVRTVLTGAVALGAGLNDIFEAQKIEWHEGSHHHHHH

[5] = target: T5, Epstein-Barr virus BHRF1 a.a. 1-161 with C-terminal avi-6his tag (Epstein-Barr virus); assay: BLI, biotinylated target on streptavidin sensor
T5 construct: also called EBV BHRF1; BHRF1-biotin
T5 chain: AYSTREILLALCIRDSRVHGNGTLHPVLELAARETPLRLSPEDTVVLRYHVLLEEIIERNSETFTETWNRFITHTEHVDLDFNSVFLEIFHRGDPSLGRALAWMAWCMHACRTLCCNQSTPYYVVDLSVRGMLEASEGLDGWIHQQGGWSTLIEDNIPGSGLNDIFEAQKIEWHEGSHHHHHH

[6] = target: T6, human Mcl-1 a.a. 172-327 with C-terminal avi-6his tag (human); assay: BLI, biotinylated target on streptavidin sensor
T6 chain: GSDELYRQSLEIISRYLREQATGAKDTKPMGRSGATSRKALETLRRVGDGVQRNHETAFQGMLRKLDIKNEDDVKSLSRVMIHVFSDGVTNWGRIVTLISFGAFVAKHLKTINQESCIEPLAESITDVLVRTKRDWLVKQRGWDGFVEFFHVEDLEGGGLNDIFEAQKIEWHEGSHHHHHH

[7] = target: T7, human Bfl-1 a.a. 1-153 (C4S) with C-terminal avi-6his tag (human); assay: BLI, biotinylated target on streptavidin sensor
T7 construct: also called A1/Bfl-1
T7 chain: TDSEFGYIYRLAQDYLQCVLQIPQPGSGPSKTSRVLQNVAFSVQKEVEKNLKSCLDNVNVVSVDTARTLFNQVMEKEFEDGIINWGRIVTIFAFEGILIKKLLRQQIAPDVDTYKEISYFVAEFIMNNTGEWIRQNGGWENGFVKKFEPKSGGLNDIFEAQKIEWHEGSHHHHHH

[8] = target: T6, human Mcl-1 a.a. 172-327 with …; assay: BLI
[9] = target: T1, human Bcl-2 a.a. 1-207 with C-terminal …; assay: BLI, biotinylated target on streptavidin sensor, range of analyte concentrations
Target sequence in this assay (P10415 other isoform, or with tags, fused parts or gaps limits assumed): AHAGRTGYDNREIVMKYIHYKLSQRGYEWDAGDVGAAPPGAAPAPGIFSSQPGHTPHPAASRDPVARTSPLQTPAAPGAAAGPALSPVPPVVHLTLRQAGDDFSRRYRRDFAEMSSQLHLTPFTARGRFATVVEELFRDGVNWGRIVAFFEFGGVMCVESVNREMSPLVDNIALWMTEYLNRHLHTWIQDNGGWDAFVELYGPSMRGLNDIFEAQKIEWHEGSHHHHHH

[10] = target: T2, human Bcl-XL a.a. 1-205 with C-terminal …; assay: as above
Target sequence in this assay (Q07817 other isoform, or with tags, fused parts or gaps limits assumed): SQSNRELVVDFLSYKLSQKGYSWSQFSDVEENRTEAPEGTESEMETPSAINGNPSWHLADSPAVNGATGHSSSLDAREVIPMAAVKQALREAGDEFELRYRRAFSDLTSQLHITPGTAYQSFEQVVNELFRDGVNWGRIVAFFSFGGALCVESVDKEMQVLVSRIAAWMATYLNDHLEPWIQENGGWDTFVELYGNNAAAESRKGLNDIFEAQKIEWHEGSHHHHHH

[11] = target: T3, human Bcl-B a.a. 11-175 with C-terminal …; assay: as above
[12] = target: T4, human Bcl-w a.a. 1-182 with C-terminal …; assay: as above
[13] = target: T6, human Mcl-1 a.a. 172-327 with …; assay: as above
[14] = target: T7, human Bfl-1 a.a. 1-153 (C4S) with …; assay: as above
[15] = target: T6, human Mcl-1 a.a. 172-327 with …; assay: ratio of the KD of the next tightest BCL2 protein to the KD of the target, BLI
[16] = target: Mcl-1 in human cancer cell lines (HeLa, colon cancer lines) (human, UniProt Q07820 1-350); assay: cell-based or functional assay
Mcl-1 in human cancer cell lines (HeLa, colon cancer lines), sequence (Q07820 whole entry): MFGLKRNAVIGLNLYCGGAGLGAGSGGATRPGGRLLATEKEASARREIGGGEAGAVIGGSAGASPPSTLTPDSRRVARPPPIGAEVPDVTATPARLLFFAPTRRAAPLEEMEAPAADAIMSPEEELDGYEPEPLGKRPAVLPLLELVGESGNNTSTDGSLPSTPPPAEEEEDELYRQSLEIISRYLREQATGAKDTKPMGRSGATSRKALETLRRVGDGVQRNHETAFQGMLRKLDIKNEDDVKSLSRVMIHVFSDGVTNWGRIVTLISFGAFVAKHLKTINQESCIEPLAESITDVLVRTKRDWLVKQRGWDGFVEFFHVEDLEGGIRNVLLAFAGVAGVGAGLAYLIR

B1: BINDI N62S (designed binder)
chain: ADPKKVLDKAKDQAENRVRELKQKLEELYKEARKLDLTQEMRRKLELRYIAAMLMAIGDIYSAIRQAKQEADKLKKAGLVNSQQLDELKRRLEELKEEASRKARDYGREFQLKLEY
Kd [1]: 30 µM | Kd [2]: 8 µM | Kd [3]: 50 µM | Kd [4]: 4.6 µM | Kd [5]: 0.00016 µM | Kd [6]: 0.23 µM | Kd [7]: 4 µM | fold decrease of affinity relative to BINDI [8]: 6 fold

B2: MINDI (Mcl-1-inhibiting design acting intracellularly) (designed binder)
chain: ADPKKVLDKAKDQAENRVRELKQVLEELYKEARKLDLTQEMRKKLIERYAAAIIRAIGDINNAIYQAKQEAEKLKKAGLVNSQQLDELLRRLDELQKEASRKANEYGREFELKLEY
notes: also called M-CDP04; αMCL1
Kd [9]: 14.2 µM | Kd [10]: 400 µM | Kd [11]: 40 µM | Kd [12]: 200 µM | Kd [13]: 0.00015 µM | Kd [14]: 30 µM | Specificity [15]: 93000 fold | decrease of the EC50 of A-1331852 in colon cancer lines on expression of αMCL1 [16]: 4.6 fold

Reference: patent US20160376333A1 (University of Washington, published 2016)
